Consider 11 molecules from US20040077572, “Transposon system and methods of use” (Regents of the University of Minnesota, published 2004).

Changes are numbered by the printed parent chain.

Settings in all cases: tags: C-terminal His6
Series [1] concerns the target T1, N123 (DNA-binding domain of Sleeping Beauty transposase) (synthetic (reconstructed salmonid)).
T1 chain: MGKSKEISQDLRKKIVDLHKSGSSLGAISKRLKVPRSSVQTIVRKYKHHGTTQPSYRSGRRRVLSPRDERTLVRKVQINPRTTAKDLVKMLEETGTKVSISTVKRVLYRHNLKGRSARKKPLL
The series is described as follows: EMSA; binding abolished. The text has this: (§1) DNA fragments with one to three DRs were obtained by digestion of the appropriate transposon with HindIII and SacI. To determine the core sequence for SB binding, DNA fragments with mutations in the outer or inner DR were made by PCR followed by enzyme digestion. DNA fragments were end-labeled with [α³²P]-dCTP. Nucleoprotein complexes were formed in a buffer as described by Ivics et al., Cell, 1997;91:501-510. Reactions contained 100 picogram (pg) DNA probes, 1 microgram (μg) poly[dI:dC], and 1 microliter (μl) N123 in a total volume of 20 μl. After a 60 minutes incubation at 30° C., […] of loading dye containing 50% glycerol and bromophenol blue were added and the samples were loaded onto 4%-6% polyacrylamide gels, which were run for 2-3 hours at 120 volts. 4% gels were used for EMSA assays with triple-DR probes while 6% gels were used with double-DR probes. Competitor concentrations were as described in Ivics et al., Cell, 1997;91:501-510. Dried gels were exposed to the phosphor for 6-9 hours and imaged on a Storm 840 Imager (Molecular Dynamics).

Series [2] addresses T1, N123 (DNA-binding domain of Sleeping …). Put plainly: EMSA; binding not affected.
Text: as §1

For series [3] the target is unchanged. The series is described as follows: competition; weaker competitor than Li.
Text: as §1
(§2) The initial step of SB transposition involves the specific binding of transposase to both ITRs of SB transposon. Two DRs in each ITR are required because deletion of one or the both severely reduces transposition (Izsvák et al., J. Mol. Biol., 2000;302:93-102). […]

For series [4] the target is unchanged. Put plainly: EMSA; still binds.
Text: as §1

The target is the same in series [5]. The series is described as follows: competition; binds more tightly than Lo.
Text: as §1, §2

B1: Lo(S10-12) (dsDNA)
DNA 1: TACAGTTGAAGAACGAAGTTTACATACACTTAAG
DNA 2: CTTAAGTGTATGTAAACTTCGTTCTTCAACTGTA
With B1, in series [1], the binding result is “no binding”.

B2: Lo(S3) (dsDNA)
DNA 1: B1 DNA 1 with G5A, A12T, A13C, C14G
DNA 2: B1 DNA 2 with G21C, T22G, T23A, C30T
As to B2, the binding result in series [2] was “binds”.

B3: Lo (dsDNA)
DNA 1: B1 DNA 1 with A12T, A13C, C14G
DNA 2: B1 DNA 2 with G21C, T22G, T23A
For B3, in series [3], the binding result was “binds”.

B4: Lo(delta8-11) (dsDNA)
DNA 1: TACAGTTGAGGAAGTTTACATACACTTAAG
DNA 2: CTTAAGTGTATGTAAACTTCCTCAACTGTA
In the case of B4, the binding result in series [1] was “no binding”.

B5: Lo(S7-9) (dsDNA)
DNA 1: TACAGTTGCCCTCGGAAGTTTACATACACTTAAG
DNA 2: CTTAAGTGTATGTAAACTTCCGAGGGCAACTGTA
For B5, in series [2], the binding result is listed as “binds”.

B6: Lo(S1,3) (dsDNA)
DNA 1: TAAAATTGAAGTCGGAAGTTTACATACACTTAAG
DNA 2: CTTAAGTGTATGTAAACTTCCGACTTCAATTTTA
B6: the binding result in series [2] is “binds”.

B7: Lo(S4-6) (dsDNA)
DNA 1: TACAGCCCAAGTCGGAAGTTTACATACACTTAAG
DNA 2: CTTAAGTGTATGTAAACTTCCGACTTGGGCTGTA
Consider B7, for which the binding result in series [2] is listed as “binds”.

B8: Li/Lo(H) (dsDNA)
DNA 1: TCCAGTGGGTCAGAAGTTTACATACACTTAAG
DNA 2: CTTAAGTGTATGTAAACTTCTGACCCACTGGA
modifications: [none]
For B8, the binding result in series [4] was “binds”.

B9: Li (dsDNA)
DNA 1: B8 DNA 1 with T29A, A31G, G32T
DNA 2: B8 DNA 2 with C1A, T2C, A4T
In the case of B9, the binding result in series [5] is on record as “binds”.

B10: Lo(S27-29) (dsDNA)
DNA 1: TACAGTTGAAGTCGGAAGTTTACATACATGGAAG
DNA 2: CTTCCATGTATGTAAACTTCCGACTTCAACTGTA
As to B10, the binding result in series [1] is given as “no binding”.

B11: Lo(S28-30) (dsDNA)
DNA 1: B10 DNA 1 with T29C, A32G
DNA 2: B10 DNA 2 with T3C, A6G
For the molecule B11, the binding result in series [2] is recorded as “binds”.
